Assay [1] deals with T1, human MASP-1 (construct not stated) (human, UniProt P48740 20-699, limits assumed).
T1 sequence: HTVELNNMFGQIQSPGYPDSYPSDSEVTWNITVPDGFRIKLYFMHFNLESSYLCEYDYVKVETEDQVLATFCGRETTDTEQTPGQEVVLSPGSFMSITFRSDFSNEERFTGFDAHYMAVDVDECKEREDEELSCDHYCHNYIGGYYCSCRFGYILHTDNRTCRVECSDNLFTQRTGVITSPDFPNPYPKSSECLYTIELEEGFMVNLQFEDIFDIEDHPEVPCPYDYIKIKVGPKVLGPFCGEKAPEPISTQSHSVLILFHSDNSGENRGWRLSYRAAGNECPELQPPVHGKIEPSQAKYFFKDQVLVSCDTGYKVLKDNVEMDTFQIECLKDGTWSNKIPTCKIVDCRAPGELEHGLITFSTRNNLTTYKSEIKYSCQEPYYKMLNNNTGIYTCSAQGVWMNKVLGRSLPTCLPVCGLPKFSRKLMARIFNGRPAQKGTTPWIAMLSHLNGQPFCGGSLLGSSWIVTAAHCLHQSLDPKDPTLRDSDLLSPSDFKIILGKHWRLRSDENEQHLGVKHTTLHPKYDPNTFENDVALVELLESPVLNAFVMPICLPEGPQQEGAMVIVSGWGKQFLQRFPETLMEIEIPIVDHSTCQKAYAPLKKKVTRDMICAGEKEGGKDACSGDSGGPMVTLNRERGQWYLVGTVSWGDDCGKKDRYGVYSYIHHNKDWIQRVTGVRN
Briefly: DTLacO screen.

The target in assay [2] is T2, human MASP-3 (construct not stated) (human).
T2 construct: also called MASP-3 antigen
T2 chain: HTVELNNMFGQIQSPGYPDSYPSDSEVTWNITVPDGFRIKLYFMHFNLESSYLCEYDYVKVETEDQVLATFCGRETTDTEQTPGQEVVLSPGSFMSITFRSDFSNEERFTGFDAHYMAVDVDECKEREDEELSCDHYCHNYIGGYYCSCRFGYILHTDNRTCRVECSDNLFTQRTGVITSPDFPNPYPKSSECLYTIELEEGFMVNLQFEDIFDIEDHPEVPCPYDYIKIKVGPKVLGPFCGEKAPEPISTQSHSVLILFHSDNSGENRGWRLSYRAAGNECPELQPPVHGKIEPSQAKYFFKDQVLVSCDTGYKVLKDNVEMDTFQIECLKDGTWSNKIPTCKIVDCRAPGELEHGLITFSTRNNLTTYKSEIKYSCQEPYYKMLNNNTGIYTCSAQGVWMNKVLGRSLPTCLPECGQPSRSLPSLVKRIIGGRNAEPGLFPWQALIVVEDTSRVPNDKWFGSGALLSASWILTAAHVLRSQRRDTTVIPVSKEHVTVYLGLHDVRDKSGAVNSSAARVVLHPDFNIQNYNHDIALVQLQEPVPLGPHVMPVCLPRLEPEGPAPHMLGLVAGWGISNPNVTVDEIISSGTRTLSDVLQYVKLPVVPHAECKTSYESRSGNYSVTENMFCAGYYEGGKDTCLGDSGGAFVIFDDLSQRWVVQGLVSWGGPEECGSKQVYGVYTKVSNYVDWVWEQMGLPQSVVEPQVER
Briefly: not described at this place.

For assay [3], the target named is T3, recombinant full-length mouse MASP-3 (mouse).
T3 construct: Entry is with leader; also called mouse full length MASP-3
T3 chain: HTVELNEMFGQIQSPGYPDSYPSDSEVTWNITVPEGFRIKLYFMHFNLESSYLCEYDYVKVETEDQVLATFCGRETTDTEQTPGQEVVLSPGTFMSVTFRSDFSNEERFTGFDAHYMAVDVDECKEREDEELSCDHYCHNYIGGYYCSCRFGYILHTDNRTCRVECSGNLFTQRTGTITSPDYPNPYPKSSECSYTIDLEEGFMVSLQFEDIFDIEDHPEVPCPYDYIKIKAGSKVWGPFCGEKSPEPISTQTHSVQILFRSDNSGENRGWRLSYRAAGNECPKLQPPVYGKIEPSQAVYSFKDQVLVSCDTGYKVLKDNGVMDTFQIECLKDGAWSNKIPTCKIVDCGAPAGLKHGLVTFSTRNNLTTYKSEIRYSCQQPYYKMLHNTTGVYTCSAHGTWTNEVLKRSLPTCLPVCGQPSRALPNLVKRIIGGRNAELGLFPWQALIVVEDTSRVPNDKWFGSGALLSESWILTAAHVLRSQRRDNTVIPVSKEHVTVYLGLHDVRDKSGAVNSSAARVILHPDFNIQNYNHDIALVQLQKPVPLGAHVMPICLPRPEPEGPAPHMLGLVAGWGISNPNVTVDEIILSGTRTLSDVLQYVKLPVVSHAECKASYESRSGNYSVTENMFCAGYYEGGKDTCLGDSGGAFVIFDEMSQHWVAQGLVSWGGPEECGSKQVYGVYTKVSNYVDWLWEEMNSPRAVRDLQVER
Briefly: sandwich ELISA, full-length mouse MASP-3 captured by αM3-259. As for the experimental part: (§1) The plate was then washed (PBS-T, 0.05%) and the candidate MASP-3 antibodies were added followed by incubation for one hour at room temperature. The plate was washed (PBS-T, 0.05%) and a detection antibody was added (mouse anti-human kappa-HRP, SouthernBiotech #9230-05) for one hour at room temperature. After another wash (PBS-T, 0.05%) the plate was developed (5 minutes) with OPT EIA TMB (BD Biosciences #555214). Absorbance reading at A450 was measured using the Spectramax M5e plate reader.

Assay [4] has as its target T4, human MASP-3 CCP1-CCP2-SP fragment (human).
T4 chain: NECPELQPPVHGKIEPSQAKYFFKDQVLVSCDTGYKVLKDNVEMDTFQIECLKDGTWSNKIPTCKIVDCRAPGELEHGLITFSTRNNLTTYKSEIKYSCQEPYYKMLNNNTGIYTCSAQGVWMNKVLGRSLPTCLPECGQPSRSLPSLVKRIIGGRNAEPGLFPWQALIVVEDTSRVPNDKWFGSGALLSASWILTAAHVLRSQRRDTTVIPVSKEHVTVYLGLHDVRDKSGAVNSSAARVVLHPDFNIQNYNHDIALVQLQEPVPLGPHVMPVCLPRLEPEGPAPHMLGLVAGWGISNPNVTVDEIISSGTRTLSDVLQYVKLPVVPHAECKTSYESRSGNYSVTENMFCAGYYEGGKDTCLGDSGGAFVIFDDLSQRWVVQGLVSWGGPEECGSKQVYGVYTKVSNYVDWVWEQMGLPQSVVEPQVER
Briefly: cell-based or functional assay.

Assay [5] addresses T4, human MASP-3 CCP1-CCP2-SP fragment. Briefly: sandwich ELISA, MASP-3 CCP1-CCP2-SP captured by αM3-259. The method, then:
as §1
For orientation: In an ELISA, binding on a coated surface is turned into a signal by an enzyme label.

The target of assay [6] is T2, human MASP-3 (construct not stated). Briefly: cell-based or functional assay.
Assay [7] has as its target T5, recombinant human MASP-2 (CCP1-CCP2-SP fragment) (human, UniProt O00187 298-686, limits assumed).
T5 construct: domain: CCP1-CCP2-SP fragment
Briefly: ELISA: recombinant MASP-2 (CCP1-CCP2-SP) coated directly on the plate, A450. As for the experimental part: as §1

The target of assay [8] is T2, human MASP-3 (construct not stated). Briefly: cell-based or functional assay.
The target in assay [9] is T4, human MASP-3 CCP1-CCP2-SP fragment. Briefly: sandwich ELISA: human MASP-3 CCP1-CCP2-SP captured on aM3-259, mAb detected with anti-human kappa-HRP, A450. The method, then:
as §1

Assay [10] concerns the target T6, recombinant human MASP-1A (S646A, CCP1-CCP2-SP fragment) (human, UniProt P48740 298-699, limits assumed).
T6 chain: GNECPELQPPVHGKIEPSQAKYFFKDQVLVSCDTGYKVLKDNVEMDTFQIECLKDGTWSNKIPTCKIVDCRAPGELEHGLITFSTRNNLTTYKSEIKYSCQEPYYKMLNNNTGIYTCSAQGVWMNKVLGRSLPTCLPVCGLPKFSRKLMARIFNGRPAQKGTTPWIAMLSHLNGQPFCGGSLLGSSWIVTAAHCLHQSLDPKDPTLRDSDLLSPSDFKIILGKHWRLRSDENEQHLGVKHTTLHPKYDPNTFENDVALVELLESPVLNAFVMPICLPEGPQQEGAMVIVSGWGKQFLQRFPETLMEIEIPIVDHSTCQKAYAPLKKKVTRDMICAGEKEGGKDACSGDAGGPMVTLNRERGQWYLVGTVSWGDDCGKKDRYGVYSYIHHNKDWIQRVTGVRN
Briefly: ELISA: recombinant MASP-1A (S646A, CCP1-CCP2-SP) coated directly on the plate, A450. As for the experimental part: as §1

In assay [11] the target is T2, human MASP-3 (construct not stated). Briefly: cross-species binding experiments.
For assay [12] the target is unchanged. Briefly: ELISA, monovalent Fab.

Bounds are passed on as bounds.

T5 sequence (O00187 298-686 limits assumed): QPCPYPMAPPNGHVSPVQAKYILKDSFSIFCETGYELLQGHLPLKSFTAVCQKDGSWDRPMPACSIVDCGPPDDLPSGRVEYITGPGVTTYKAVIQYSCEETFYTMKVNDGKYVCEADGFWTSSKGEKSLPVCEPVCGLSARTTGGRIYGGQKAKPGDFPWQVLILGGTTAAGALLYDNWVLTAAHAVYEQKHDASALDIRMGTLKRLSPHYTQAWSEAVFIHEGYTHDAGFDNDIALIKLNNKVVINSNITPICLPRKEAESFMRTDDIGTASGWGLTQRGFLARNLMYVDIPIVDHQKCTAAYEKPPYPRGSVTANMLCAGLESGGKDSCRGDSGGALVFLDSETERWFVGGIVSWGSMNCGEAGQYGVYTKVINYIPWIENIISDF

B1: MASP-3 clone D14 (antibody, human IgG1, V domains shown)
VH: AVTLDESGGGLQTPGGALSLVCKASGFTFSSYAMHWVRQAPGKGLEWVAGIYKSGAGTNYAPAVKGRATISRDNGQSTVRLQLNNLRAEDTGTYYCAKTTGSGCSSGYRAEYIDAWGHGTEVIVSS
VL: ALTQPASVSANPGETVKITCSGGGSYAGSYYYGWYQQKAPGSAPVTLIYYNNKRPSDIPSRFSGSLSGSTNTLTITGVRADDEAVYFCGSADNSGAAFGAGTTLTVL
notes: Chicken V regions from the DTLacO platform; also called mAbD14; mAb D14
Take B1: in assay [1], the binding result is “binds”.

B2: MASP-3 mAb 4D5 (mouse-human chimeric IgG4) (antibody, V domains shown)
VH: QVQLKQSGPELVKPGASVKLSCKASGYTFTTDDINWVKQRPGQGLEWIGWIYPRDDRTKYNDKFKDKATLTVDTSSNTAYMDLHSLTSEDSAVYFCSSLEDTYWGQGTLVAVSS
VL: DIVMTQSPSSLAVSAGEKVTMTCKSSQSLLNSRTRKNYLAWYQQKPGQSPKLLIYWASTRESGVPDRFTGSGSGTDFSLTISSVQAEDLAVYYCKQSYNLYTFGGGTKLEIKR
For B2, in [2], the binding affinity was at most 500 pM. Besides, the figures for the EC50 in [3], in assay [5] and in assay [9] were 98 pM, 58 pM and 113 pM, respectively. Also, the “inhibition of MASP-3-dependent fluorogenic tripeptide (BOC-V-P-R-AMC) cleavage” value (from here on “inhibition … (BOC-V-P-R-AMC) cleavage”) in assay [4] is 27.5 nM. Moreover, in assay [6], the “Inhibition of Factor Bb Deposition on Zymosan (IC50 nM), 10% factor D-depleted human serum with pro-factor D” value was 0.4 nM. Besides, the binding result in [7] and in assay [10] was “no binding (tested: about 20 nM (log10 about 1.3))” throughout. Moreover, in assay [8], the “Inhibition of Rabbit Erythrocyte Lysis (IC50 nM), 10% factor D-depleted human serum” value was 0.1 nM.

B3: 4D5 Parental Fab (Fab, V domains shown)
VH: QVQLKQSGPELVKPGASVKLSCKASGYTFTTDDINWVKQRPGQGLEWIGWIYPRDDRTKYNDKFKDKATLTVDTSSNTAYMDLHSLTSEDSAVYFCSSLEDTYWGQGTLVAVSS
VL: DIVMTQSPSSLAVSAGEKVTMTCKSSQSLLNSRTRKNYLAWYQQKPGQSPKLLIYWASTRESGVPDRFTGSGSGTDFSLTISSVQAEDLAVYYCKQSYNLYTFGGGTKLEIKR
notes: Monovalent Fab; also called 4D5 Fab
On to B3, for which the avidity in assay [11] is below 500 pM. Also, the EC50 in assay [12] was 107 pM.

B4: MASP-3 mAb 1G4 (mouse-human chimeric IgG4) (antibody, V domains shown)
VH: QVQLKQSGAELMKPGASVKLACKATGYTFTGYWIEWIKQRPGQGLEWIGEMLPGSGSTHYNEKFKGKATFTADTSSNTAYMQLSGLTTEDSAIYYCVRSIDYWGQGTTLTVSS
VL: DVLMTQTPLSLPVSLGEQASISCRSSQSLVQSNGNTYLHWYLQKPGQSPKLLIYKVSNRFSGVPDRFSGSGSGTDFTLKISRVEAEDLGVYFCSQSTHVPPTFGGGTKLEIKR
Turning to B4, the binding affinity in [2] was at most 500 pM. Also, the values for the 50% effective concentration (EC50) in [3] and in assay [5] were 3700 pM and 177 pM, respectively. In addition, the “inhibition … (BOC-V-P-R-AMC) cleavage” value in [4] stood at 29.6 nM. In addition, the “Inhibition of Factor Bb Deposition on Zymosan (IC50 nM), 10% factor D-depleted human serum with pro-factor D” value in [6] is 1.1 nM. Also, the binding result in [7] and in assay [10] was “no binding (tested: about 20 nM (log10 about 1.3))” in each case. Further, in assay [8], the “Inhibition of Rabbit Erythrocyte Lysis (IC50 nM), 10% factor D-depleted human serum” value is 2.7 nM.

B5: MASP-3 mAb 10D12 (mouse-human chimeric IgG4) (antibody, V domains shown)
VH: QIQLVQSGPELKKPGETVKISCKASGYIFTSYGMSWVRQAPGKGLKWMGWINTYSGVPTYADDFKGRFAFSLETSARTPYLQINNLKNEDTATYFCARGGEAMDYWGQGTSVTVSS
VL: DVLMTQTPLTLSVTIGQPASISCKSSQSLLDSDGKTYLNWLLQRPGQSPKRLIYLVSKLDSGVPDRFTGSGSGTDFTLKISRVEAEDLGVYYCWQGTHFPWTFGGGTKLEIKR
In the case of B5, in [2], the binding affinity was at most 500 pM. The EC50 in assay [3] turned out to be 81 pM; in assay [5] it was 89 pM; in assay [9], 23 pM. The “inhibition … (BOC-V-P-R-AMC) cleavage” value in assay [4] is 30.9 nM. Also, the “Inhibition of Factor Bb Deposition on Zymosan (IC50 nM), 10% factor D-depleted human serum with pro-factor D” value in assay [6] is 0.5 nM. Further, the binding result in assay [7] and in assay [10] was “no binding (tested: about 20 nM (log10 about 1.3))” each time.

B6: 10D12 Parental Fab (Fab, V domains shown)
VH: QIQLVQSGPELKKPGETVKISCKASGYIFTSYGMSWVRQAPGKGLKWMGWINTYSGVPTYADDFKGRFAFSLETSARTPYLQINNLKNEDTATYFCARGGEAMDYWGQGTSVTVSS
VL: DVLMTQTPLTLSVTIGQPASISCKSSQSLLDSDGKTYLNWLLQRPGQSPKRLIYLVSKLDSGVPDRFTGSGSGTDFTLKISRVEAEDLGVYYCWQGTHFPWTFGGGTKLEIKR
notes: Monovalent Fab; also called 10D12 Fab
B6 had an avidity in assay [11] below 500 pM. This molecule displayed an EC50 in [12] of 108 pM.

Usually EC50 stands for the concentration at which the effect is half-maximal.

The record behind these values is US20200270125A1 (OMEROS, published 2020).
